Test results reported in patent publication US20250325630A1, “HOMODIMER FUSION PROTEINS FOR TREATING ATOPIC DERMATITIS” (Intervet Inc., priority 2021, published 2025).

Key:
canine IL-4 (cIL-4) = biological target: T1, canine IL-4 (cIL-4) (Canis lupus familiaris, UniProt O77762); assay: Binding kinetics of cFc fusion proteins to canine IL-4 (OCTET HTX); settings: for ka / kdis: Table 3, cIL-4, ND = Binding Not Detected; for ka: association rate constant; for kdis: dissociation rate constant; for Kd: approximate values, read-out: binding constant (KD) with cIL-4
T1 sequence (O77762 25-132): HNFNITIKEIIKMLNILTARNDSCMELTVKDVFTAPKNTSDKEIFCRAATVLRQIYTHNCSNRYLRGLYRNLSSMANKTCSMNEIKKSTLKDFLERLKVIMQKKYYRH
Experimental: (§1) The binding constants for the cFc fusion proteins provided in Tables 3 and 4 below, were determined using OCTET® HTX. All kinetics measurements were performed by OCTET® HTX using SA® biosensors and DATA ACQUISITION® 12.0 software. 10 μg/mL of biotin-labeled antigen, either canine IL-4 (cIL-4) or canine IL-13 (cIL-13) were loaded onto the SAR biosensors for 120 seconds. Next, the biosensors were placed into 1×pH 7.0 TBS/Casein buffer for 60 seconds for the blocking phase. For the association phase, antigen loaded biosensors were placed into 2-fold serial dilutions from 1 μM down to 15.6 nM of the wild-type, the bispecific, or the FcRn-mutant receptor Fc-fusions that recognized the cIL-4 or cIL-13 antigen in 1×pH 7.0 TBS/Casein buffer for 30 seconds. The last well was buffer alone and that sensor was used for reference sensor subtraction. Finally, the biosensors were placed into 1×pH 7.0 TBS/Casein buffer for 120 seconds for the dissociation phase. The results were then analyzed using Data Analysis 12.0 software and the curves were fitted using a 1:1 binding model.

canine IL-13 (cIL-13) = biological target: T2, canine IL-13 (cIL-13) (Canis lupus familiaris, UniProt Q9N0W9); assay: Binding kinetics of cFc fusion proteins to canine IL-13 (OCTET HTX); settings: for ka / kdis: Table 4, cIL-13; for ka: association rate constant; for kdis: dissociation rate constant
T2 sequence (Q9N0W9 19-131): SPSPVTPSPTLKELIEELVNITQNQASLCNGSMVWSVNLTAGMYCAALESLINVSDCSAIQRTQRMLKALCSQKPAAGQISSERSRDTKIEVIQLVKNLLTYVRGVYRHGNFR
Experimental: as §1

Molecule	loss in affinity for cIL-4 (KD times higher) relative to unmodified cIL-4Rα-cFc homodimer (canine IL-4 (cIL-4))	ka (canine IL-4 (cIL-4)) [M⁻¹ s⁻¹]	kdis (canine IL-4 (cIL-4)) [s⁻¹]	Kd (canine IL-4 (cIL-4)) [pM]	decrease in the affinity for cIL-13 relative to unmodified cIL-13Rα1-cFc (canine IL-13 (cIL-13))	ka (canine IL-13 (cIL-13)) [M⁻¹ s⁻¹]	kdis (canine IL-13 (cIL-13)) [s⁻¹]	Kd (canine IL-13 (cIL-13); approximate values, read-out: binding constant (KD) with cIL-13) [pM]
cIL-4Rα-cFc-H: cIL-4Rα-cIgGB-Fc with N202H half-life substitution, SEQ ID NO: 11 (protein, homodimer) VKVLHEPSCFSDYISTSVCQWKMDHPTNCSAELRLSYQLDFMGSENHTCVPENREDSVCVCSMPIDDAVEADVYQLDLWAGQQLLWSGSFQPSKHVKPRTPGNLTVHPNISHTWLLMWTNPYPTENHLHSELTYMVNVSNDNDPEDFKVYNVTYMGPTLRLAASTLKSGASYSARVRAWAQTYNSTWSDWSPSTTWLNYYEPWEQHLPPKRENGRVPRPPDCPKCPAPEMLGGPSVFIFPPKPKDTLLIARTPEVTCVVVDLDPEDPEVQISWFVDGKQMQTAKTQPREEQFNGTYRVVSVLPIGHQDWLKGKQFTCKVNNKALPSPIERTISKARGQAHQPSVYVLPPSREELSKNTVSLTCLIKDFFPPDIDVEWQSNGQQEPESKYRTTPPQLDEDGSYFLYSKLSVDKSRWQRGDTFICAVMHEALHHHYTQESLSHSPGK	about 10 fold	785000	9.88e-05	100				
cIL-4Rα-cFc-YTE: cIL-4Rα-cIgGB-Fc with L18Y/A20T/T22E half-life substitutions, SEQ ID NO: 8 (protein, homodimer) VKVLHEPSCFSDYISTSVCQWKMDHPTNCSAELRLSYQLDFMGSENHTCVPENREDSVCVCSMPIDDAVEADVYQLDLWAGQQLLWSGSFQPSKHVKPRTPGNLTVHPNISHTWLLMWTNPYPTENHLHSELTYMVNVSNDNDPEDFKVYNVTYMGPTLRLAASTLKSGASYSARVRAWAQTYNSTWSDWSPSTTWLNYYEPWEQHLPPKRENGRVPRPPDCPKCPAPEMLGGPSVFIFPPKPKDTLYITREPEVTCVVVDLDPEDPEVQISWFVDGKQMQTAKTQPREEQFNGTYRVVSVLPIGHQDWLKGKQFTCKVNNKALPSPIERTISKARGQAHQPSVYVLPPSREELSKNTVSLTCLIKDFFPPDIDVEWQSNGQQEPESKYRTTPPQLDEDGSYFLYSKLSVDKSRWQRGDTFICAVMHEALHNHYTQESLSHSPGK	~100 fold	830000	9.23e-06	10				
cIL-13Rα1-cFc-YTE: cIL-13Rα1-cIgGB-Fc with L18Y/A20T/T22E half-life substitutions, SEQ ID NO: 9 (protein, homodimer) GGVAAPTETQPPVTNLSVSVENLCTVIWTWDPPEGASPNCTLRYFSHFDNKQDKKIAPETHRSKEVPLNERICLQVGSQCSTNESDNPSILVEKCTPPPEGDPESAVTELQCVWHNLSYMKCTWLPGRNTSPDTNYTLYYWHSSLGKILQCEDIYREGQHIGCSFALTNLKDSSFEQHSVQIVVKDNAGKIRPSFNIVPLTSHVKPDPPHIKRLFFQNGNLYVQWKNPQNFYSRCLSYQVEVNNSQTETNDIFYVEEAKCQNSEFEGNLEGTICFMVPGVLPDTLNTVRIRVRTNKLCYEDDKLWSNWSQAMSIGENTDPTPKRENGRVPRPPDCPKCPAPEMLGGPSVFIFPPKPKDTLYITREPEVTCVVVDLDPEDPEVQISWFVDGKQMQTAKTQPREEQFNGTYRVVSVLPIGHQDWLKGKQFTCKVNNKALPSPIERTISKARGQAHQPSVYVLPPSREELSKNTVSLTCLIKDFFPPDIDVEWQSNGQQEPESKYRTTPPQLDEDGSYFLYSKLSVDKSRWQRGDTFICAVMHEALHNHYTQESLSHSPGK					about 4 fold	66500	0.0011	20000
cIL-4Rα-cFc: homodimer of canine IL-4Rα ECD, IgGB hinge region and IgGB cFc fusion protein, SEQ ID NO: 5 (protein, homodimer) VKVLHEPSCFSDYISTSVCQWKMDHPTNCSAELRLSYQLDFMGSENHTCVPENREDSVCVCSMPIDDAVEADVYQLDLWAGQQLLWSGSFQPSKHVKPRTPGNLTVHPNISHTWLLMWTNPYPTENHLHSELTYMVNVSNDNDPEDFKVYNVTYMGPTLRLAASTLKSGASYSARVRAWAQTYNSTWSDWSPSTTWLNYYEPWEQHLPPKRENGRVPRPPDCPKCPAPEMLGGPSVFIFPPKPKDTLLIARTPEVTCVVVDLDPEDPEVQISWFVDGKQMQTAKTQPREEQFNGTYRVVSVLPIGHQDWLKGKQFTCKVNNKALPSPIERTISKARGQAHQPSVYVLPPSREELSKNTVSLTCLIKDFFPPDIDVEWQSNGQQEPESKYRTTPPQLDEDGSYFLYSKLSVDKSRWQRGDTFICAVMHEALHNHYTQESLSHSPGK		703000	8.3e-07					
cIL-13Rα2-cFc-YD: cIL-13Rα2-cIgGB-Fc with L18Y/T22D half-life substitutions, SEQ ID NO: 13 (protein, homodimer) SMLSNAEIKVNPPQDFEIVDPGYLGYLSLQWQPPLFPDNFKECTIEYELKYRNIDSENWKTIITKNLHYKDGFDLNKGIEAKINTLLPAQCTNGSEVRSSWAETTYWTSPQGNRETKIQDMDCVYYNWQYLVCSWKPGMGVHFDTNYQLFYWYEGLDHSAECTDYIKVNGKNMGCRFPYLESSDYKDFYICVNGSSESQPIRPSYFIFQLQNIVKPMPPDYLSLTVKNSEEINLKWNMPKGPIPAKCFIYEIEFTEDGTTWVTTTVENEIQITRTSNESQKLCFLVRSKVNIYCSDDGIWSEWSDEQCWKGDIWKETPKRENGRVPRPPDCPKCPAPEMLGGPSVFIFPPKPKDTLYIARDPEVTCVVVDLDPEDPEVQISWFVDGKQMQTAKTQPREEQFNGTYRVVSVLPIGHQDWLKGKQFTCKVNNKALPSPIERTISKARGQAHQPSVYVLPPSREELSKNTVSLTCLIKDFFPPDIDVEWQSNGQQEPESKYRTTPPQLDEDGSYFLYSKLSVDKSRWQRGDTFICAVMHEALHNHYTQESLSHSPGK						1.15e+06	5.07e-07	
cIL-13Rα2-cFc: homodimer of canine IL-13Rα2 ECD, IgGB hinge region and IgGB cFc fusion protein, SEQ ID NO: 7 (protein, homodimer) SMLSNAEIKVNPPQDFEIVDPGYLGYLSLQWQPPLFPDNFKECTIEYELKYRNIDSENWKTIITKNLHYKDGFDLNKGIEAKINTLLPAQCTNGSEVRSSWAETTYWTSPQGNRETKIQDMDCVYYNWQYLVCSWKPGMGVHFDTNYQLFYWYEGLDHSAECTDYIKVNGKNMGCRFPYLESSDYKDFYICVNGSSESQPIRPSYFIFQLQNIVKPMPPDYLSLTVKNSEEINLKWNMPKGPIPAKCFIYEIEFTEDGTTWVTTTVENEIQITRTSNESQKLCFLVRSKVNIYCSDDGIWSEWSDEQCWKGDIWKETPKRENGRVPRPPDCPKCPAPEMLGGPSVFIFPPKPKDTLLIARTPEVTCVVVDLDPEDPEVQISWFVDGKQMQTAKTQPREEQFNGTYRVVSVLPIGHQDWLKGKQFTCKVNNKALPSPIERTISKARGQAHQPSVYVLPPSREELSKNTVSLTCLIKDFFPPDIDVEWQSNGQQEPESKYRTTPPQLDEDGSYFLYSKLSVDKSRWQRGDTFICAVMHEALHNHYTQESLSHSPGK						1e+06	7.45e-07	
cIL-13Rα2-cFc-YTE: cIL-13Rα2-cIgGB-Fc with L18Y/A20T/T22E half-life substitutions, SEQ ID NO: 10 (protein, homodimer) SMLSNAEIKVNPPQDFEIVDPGYLGYLSLQWQPPLFPDNFKECTIEYELKYRNIDSENWKTIITKNLHYKDGFDLNKGIEAKINTLLPAQCTNGSEVRSSWAETTYWTSPQGNRETKIQDMDCVYYNWQYLVCSWKPGMGVHFDTNYQLFYWYEGLDHSAECTDYIKVNGKNMGCRFPYLESSDYKDFYICVNGSSESQPIRPSYFIFQLQNIVKPMPPDYLSLTVKNSEEINLKWNMPKGPIPAKCFIYEIEFTEDGTTWVTTTVENEIQITRTSNESQKLCFLVRSKVNIYCSDDGIWSEWSDEQCWKGDIWKETPKRENGRVPRPPDCPKCPAPEMLGGPSVFIFPPKPKDTLYITREPEVTCVVVDLDPEDPEVQISWFVDGKQMQTAKTQPREEQFNGTYRVVSVLPIGHQDWLKGKQFTCKVNNKALPSPIERTISKARGQAHQPSVYVLPPSREELSKNTVSLTCLIKDFFPPDIDVEWQSNGQQEPESKYRTTPPQLDEDGSYFLYSKLSVDKSRWQRGDTFICAVMHEALHNHYTQESLSHSPGK						1.17e+06	5.04e-07	
